# Data: the supplement of paper PMC11316812
# ± gives the standard deviation of the averaged measurements.
# What was measured:
# MCF7 = assay: percentage of EdU-negative (G0-arrested) nuclei per well, 72 h; higher = more G0 arrest; conditions: reference: sequence is the full UniProt precursor, the tested protein was the secreted form or ectodomain
# hTERT-HMEC = assay: as above; conditions: reference: sequence is the full UniProt precursor, the tested protein was the secreted form or ectodomain
# [1] = protein concentration 0.03125 µM
# [2] = protein concentration 0.3125 µM
# [3] = protein concentration 0.0229925 µM
# [4] = protein concentration 0.229925 µM
# [5] = protein concentration 0.0225 µM
# [6] = protein concentration 0.00825 µM
# [7] = protein concentration 0.0825 µM
# [8] = protein concentration 0.01025 µM
# [9] = protein concentration 0.1025 µM
# [10] = protein concentration 0.0142825 µM
# [11] = protein concentration 0.142825 µM
# [12] = protein concentration 0.0187725 µM
# [13] = protein concentration 0.187725 µM
# 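Note: secreted proteins added to cultured cells, EdU pulse at the end, nuclei found by Hoechst imaging, EdU status from nuclear versus surrounding ring intensity ratio, PBS as neutral control.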
Sequence,percentage of EdU-negative (MCF7; [5]),percentage of EdU-negative (MCF7; protein concentration 0.225 µM),percentage of EdU-negative (hTERT-HMEC; [5]),percentage of EdU-negative (hTERT-HMEC; protein concentration 0.225 µM),also measured
MAKVFSFILVTTALTMGREISALEDCAQEQMRLRAQVRLLETRVKQQQVKIKQLLQENEVQFLDKGDENTVIDLGSKRQYADCSEIFNDGYKLSGFYKIKPLQSPAEFSVYCDMSDGGGWTVIQRRSDGSENFNRGWKDYENGFGNFVQKHGEYWLGNKNLHFLTTQEDYTLKIDLADFEKNSRYAQYKNFKVGDEKNFYELNIGEYSGTAGDSLAGNFHPEVQWWASHQRMKFSTWDRDHDNYEGNCAEEDQSGWWFNRCHSANLNGVYYSGPYTAKTDNGIVWYTWHGWWYSLKSVVMKIRPNDFIPNVI,–,–,–,–,percentage of EdU-negative (MCF7; [1]): 24.5 ± 4.1%; percentage of EdU-negative (MCF7; [2]): 22.8 ± 2.3%; percentage of EdU-negative (hTERT-HMEC; [1]): 6.18 ± 1.3%; percentage of EdU-negative (hTERT-HMEC; [2]): 5.22 ± 0.14%
MARPNKFLLWFCCFAWLCFPISLGSQASGGEAQIAASAELESGAMPWSLLQHIDERDRAGLLPALFKVLSVGRGGSPRLQPDSRALHYMKKLYKTYATKEGIPKSNRSHLYNTVRLFTPCTRHKQAPGDQVTGILPSVELLFNLDRITTVEHLLKSVLLYNINNSVSFSSAVKCVCNLMIKEPKSSSRTLGRAPYSFTFNSQFEFGKKHKWIQIDVTSLLQPLVASNKRSIHMSINFTCMKDQLEHPSAQNGLFNMTLVSPSLILYLNDTSAQAYHSWYSLHYKRRPSQGPDQERSLSAYPVGEEAAEDGRSSHHRHRRGQETVSSELKKPLGPASFNLSEYFRQFLLPQNECELHDFRLSFSQLKWDNWIVAPHRYNPRYCKGDCPRAVGHRYGSPVHTMVQNIIYEKLDSSVPRPSCVPAKYSPLSVLTIEPDGSIAYKEYEDMIATKCTCR,–,–,–,–,percentage of EdU-negative (MCF7; [3]): 24.683 ± 0.017%; percentage of EdU-negative (MCF7; [4]): 29.8 ± 2.2%; percentage of EdU-negative (hTERT-HMEC; [3]): 4.1 ± 0.078%; percentage of EdU-negative (hTERT-HMEC; [4]): 4.84 ± 1.5%
MDLRDFYLLAALIACLRLDSAIAQELIYTIREELPENVPIGNIPKDLNISHINAATGTSASLVYRLVSKAGDAPLVKVSSSTGEIFTTSNRIDREKLCAGASYAEENECFFELEVVILPNDFFRLIKIKIIVKDTNDNAPMFPSPVINISIPENTLINSRFPIPSATDPDTGFNGVQHYELLNGQSVFGLDIVETPEGEKWPQLIVQQNLDREQKDTYVMKIKVEDGGTPQKSSTAILQVTVSDVNDNRPVFKEGQVEVHIPENAPVGTSVIQLHATDADIGSNAEIRYIFGAQVAPATKRLFALNNTTGLITVQRSLDREETAIHKVTVLASDGSSTPARATVTINVTDVNDNPPNIDLRYIISPINGTVYLSEKDPVNTKIALITVSDKDTDVNGKVICFIEREVPFHLKAVYDNQYLLETSSLLDYEGTKEFSFKIVASDSGKPSLNQTALVRVKLEDENDNPPIFNQPVIELSVSENNRRGLYLTTISATDEDSGKNADIVYQLGPNASFFDLDRKTGVLTASRVFDREEQERFIFTVTARDNGTPPLQSQAAVIVTVLDENDNSPKFTHNHFQFFVSENLPKYSTVGVITVTDADAGENKAVTLSILNDNDNFVLDPYSGVIKSNVSFDREQQSSYTFDVKATDGGQPPRSSTAKVTINVMDVNDNSPVVISPPSNTSFKLVPLSAIPGSVVAEVFAVDVDTGMNAELKYTIVSGNNKGLFRIDPVTGNITLEEKPAPTDVGLHRLVVNISDLGYPKSLHTLVLVFLYVNDTAGNASYIYDLIRRTMETPLDRNIGDSSQPYQNEDYLTIMIAIIAGAMVVIVVIFVTVLVRCRHASRFKAAQRSKQGAEWMSPNQENKQNKKKKRKKRKSPKSSLLNFVTIEESKPDDAVHEPINGTISLPAELEEQSIGRFDWGPAPPTTFKPNSPDLAKHYKSASPQPAFHLKPDTPVSVKKHHVIQELPLDNTFVGGCDTLSKRSSTSSDHFSASECSSQGGFKTKGPLHTRQCNSHSKSDNIPVTPQKCPSSTGFHIQENEESHYESQRRVTFHLPDGSQESCSDSGLGDHEPVGSGTLISHPLPLVQPQDEFYDQASPDKRTEADGNSDPNSDGPLGPRGLAEATEMCTQECLVLGHSDNCWMPPGLGPYQHPKSPLSTFAPQKEWVKKDKLVNGHTLTRAWKEDSNRNQFNDRKQYGSNEGHFNNGSHMTDIPLANLKSYKQAGGATESPKEHQL [Q9HC56],25.9 ± 2.1%,32.9 ± 2.9%,4.64 ± 0.43%,13.4 ± 3.9%,–
MLVGQGAGPLGPAVVTAAVVLLLSGVGPAHGSEDIVVGCGGFVKSDVEINYSLIEIKLYTKHGTLKYQTDCAPNNGYFMIPLYDKGDFILKIEPPLGWSFEPTTVELHVDGVSDICTKGGDINFVFTGFSVNGKVLSKGQPLGPAGVQVSLRNTGTEAKIQSTVTQPGGKFAFFKVLPGDYEILATHPTWALKEASTTVRVTNSNANAASPLIVAGYNVSGSVRSDGEPMKGVKFLLFSSLVTKEDVLGCNVSPVPGFQPQDESLVYLCYTVSREDGSFSFYSLPSGGYTVIPFYRGERITFDVAPSRLDFTVEHDSLKIEPVFHVMGFSVTGRVLNGPEGDGVPEAVVTLNNQIKVKTKADGSFRLENITTGTYTIHAQKEHLYFETVTIKIAPNTPQLADIIATGFSVCGQISIIRFPDTVKQMNKYKVVLSSQDKDKSLVTVETDAHGSFCFKAKPGTYKVQVMVPEAETRAGLTLKPQTFPLTVTNRPMMDVAFVQFLASVSGKVSCLDTCGDLLVTLQSLSRQGEKRSLQLSGKVNAMTFTFDNVLPGKYKISIMHEDWCWKNKSLEVEVLEDDMSAVEFRQTGYMLRCSLSHAITLEFYQDGNGRENVGIYNLSKGVNRFCLSKPGVYKVTPRSCHRFEQAFYTYDTSSPSILTLTAIRHHVLGTITTDKMMDVTVTIKSSIDSEPALVLGPLKSVQELRREQQLAEIEARRQEREKNGNEEGEERMTKPPVQEMVDELQGPFSYDFSYWARSGEKITVTPSSKELLFYPPSMEAVVSGESCPGKLIEIHGKAGLFLEGQIHPELEGVEIVISEKGASSPLITVFTDDKGAYSVGPLHSDLEYTVTSQKEGYVLTAVEGTIGDFKAYALAGVSFEIKAEDDQPLPGVLLSLSGGLFRSNLLTQDNGILTFSNLSPGQYYFKPMMKEFRFEPSSQMIEVQEGQNLKITITGYRTAYSCYGTVSSLNGEPEQGVAMEAVGQNDCSIYGEDTVTDEEGKFRLRGLLPGCVYHVQLKAEGNDHIERALPHHRVIEVGNNDIDDVNIIVFRQINQFDLSGNVITSSEYLPTLWVKLYKSENLDNPIQTVSLGQSLFFHFPPLLRDGENYVVLLDSTLPRSQYDYILPQVSFTAVGYHKHITLIFNPTRKLPEQDIAQGSYIALPLTLLVLLAGYNHDKLIPLLLQLTSRLQGVRALGQAASDNSGPEDAKRQAKKQKTRRT,–,–,–,–,percentage of EdU-negative (MCF7; [6]): 22.7 ± 1.3%; percentage of EdU-negative (MCF7; [7]): 26.29 ± 0.074%; percentage of EdU-negative (hTERT-HMEC; [6]): 5.23 ± 0.14%; percentage of EdU-negative (hTERT-HMEC; [7]): 7.14 ± 1.1%
MPLSLGAEMWGPEAWLLLLLLLASFTGRCPAGELETSDVVTVVLGQDAKLPCFYRGDSGEQVGQVAWARVDAGEGAQELALLHSKYGLHVSPAYEGRVEQPPPPRNPLDGSVLLRNAVQADEGEYECRVSTFPAGSFQARLRLRVLVPPLPSLNPGPALEEGQGLTLAASCTAEGSPAPSVTWDTEVKGTTSSRSFKHSRSAAVTSEFHLVPSRSMNGQPLTCVVSHPGLLQDQRITHILHVSFLAEASVRGLEDQNLWHIGREGAMLKCLSEGQPPPSYNWTRLDGPLPSGVRVDGDTLGFPPLTTEHSGIYVCHVSNEFSSRDSQVTVDVLDPQEDSGKQVDLVSASVVVVGVIAALLFCLLVVVVVLMSRYHRRKAQQMTQKYEEELTLTRENSIRRLHSHHTDPRSQPEESVGLRAEGHPDSLKDNSSCSVMSEEPEGRSYSTLTTVREIETQTELLSPGSGRAEEEEDQDEGIKQAMNHFVQENGTLRAKPTGNGIYINGRGHLV [Q96NY8],27.6 ± 2%,27.8 ± 0.29%,4.77 ± 0.36%,5.65 ± 0.22%,–
MTVLAPAWSPTTYLLLLLLLSSGLSGTQDCSFQHSPISSDFAVKIRELSDYLLQDYPVTVASNLQDEELCGGLWRLVLAQRWMERLKTVAGSKMQGLLERVNTEIHFVTKCAFQPPPSCLRFVQTNISRLLQETSEQLVALKPWITRQNFSRCLELQCQPDSSTLPPPWSPRPLEATAPTAPQPPLLLLLLLPVGLLLLAAAWCLHWQRTRRRTPRPGEQVPPVPSPQDLLLVEH,25 ± 0.85%,25.7 ± 0.9%,5 ± 0.57%,5.47 ± 0.61%,–
MLPAAMKGLGLALLAVLLCSAPAHGLWCQDCTLTTNSSHCTPKQCQPSDTVCASVRITDPSSSRKDHSVNKMCASSCDFVKRHFFSDYLMGFINSGILKVDVDCCEKDLCNGAAGAGHSPWALAGGLLLSLGPALLWAGP,25.6 ± 3.3%,26.7 ± 1.4%,4.57 ± 0.15%,5.48 ± 0.5%,–
MAAATGPSFWLGNETLKVPLALFALNRQRLCERLRKNPAVQAGSIVVLQGGEETQRYCTDTGVLFRQESFFHWAFGVTEPGCYGVIDVDTGKSTLFVPRLPASHATWMGKIHSKEHFKEKYAVDDVQYVDEIASVLTSQKPSVLLTLRGVNTDSGSVCREASFDGISKFEVNNTILHPEIVECRVFKTDMELEVLRYTNKISSEAHREVMKAVKVGMKEYELESLFEHYCYSRGGMRHSSYTCICGSGENSAVLHYGHAGAPNDRTIQNGDMCLFDMGGEYYCFASDITCSFPANGKFTADQKAVYEAVLRSSRAVMGAMKPGVWWPDMHRLADRIHLEELAHMGILSGSVDAMVQAHLGAVFMPHGLGHFLGIDVHDVGGYPEGVERIDEPGLRSLRTARHLQPGMVLTVEPGIYFIDHLLDEALADPARASFLNREVLQRFRGFGGVRIEEDVVVTDSGIELLTCVPRTVEEIEACMAGCDKAFTPFSGPK,–,–,–,–,percentage of EdU-negative (MCF7; [8]): 26 ± 1%; percentage of EdU-negative (MCF7; [9]): 27.3 ± 1.4%; percentage of EdU-negative (hTERT-HMEC; [8]): 5.01 ± 0.5%; percentage of EdU-negative (hTERT-HMEC; [9]): 4.28 ± 0.51%
MARPLCTLLLLMATLAGALASSSKEENRIIPGGIYDADLNDEWVQRALHFAISEYNKATEDEYYRRPLQVLRAREQTFGGVNYFFDVEVGRTICTKSQPNLDTCAFHEQPELQKKQLCSFEIYEVPWEDRMSLVNSRCQEA,25.1 ± 1.4%,24.36 ± 0.2%,5.17 ± 0.14%,6.38 ± 0.58%,–
MEKIPVSAFLLLVALSYTLARDTTVKPGAKKDTKDSRPKLPQTLSRGWGDQLIWTQTYEEALYKSKTSNKPLMIIHHLDECPHSQALKKVFAENKEIQKLAEQFVLLNLVYETTDKHLSPDGQYVPRIMFVDPSLTVRADITGRYSNRLYAYEPADTALLLDNMKKALKLLKTEL,25.2 ± 1.5%,25.7 ± 0.74%,4.87 ± 0.93%,7.88 ± 0.32%,–
MKLCVTVLSLLMLVAAFCSPALSAPMGSDPPTACCFSYTARKLPRNFVVDYYETSSLCSQPAVVFQTKRSKQVCADPSESWVQEYVYDLELN,–,–,–,–,percentage of EdU-negative (MCF7; [10]): 24.5 ± 1.1%; percentage of EdU-negative (MCF7; [11]): 25.7 ± 0.56%; percentage of EdU-negative (hTERT-HMEC; [10]): 5.53 ± 0.77%; percentage of EdU-negative (hTERT-HMEC; [11]): 5.12 ± 0.26%
MKEYVLLLFLALCSAKPFFSPSHIALKNMMLKDMEDTDDDDDDDDDDDDDDEDNSLFPTREPRSHFFPFDLFPMCPFGCQCYSRVVHCSDLGLTSVPTNIPFDTRMLDLQNNKIKEIKENDFKGLTSLYGLILNNNKLTKIHPKAFLTTKKLRRLYLSHNQLSEIPLNLPKSLAELRIHENKVKKIQKDTFKGMNALHVLEMSANPLDNNGIEPGAFEGVTVFHIRIAEAKLTSVPKGLPPTLLELHLDYNKISTVELEDFKRYKELQRLGLGNNKITDIENGSLANIPRVREIHLENNKLKKIPSGLPELKYLQIIFLHSNSIARVGVNDFCPTVPKMKKSLYSAISLFNNPVKYWEMQPATFRCVLSRMSVQLGNFGM [Q9BXN1],–,–,–,–,percentage of EdU-negative (MCF7; [12]): 26.18 ± 0.19%; percentage of EdU-negative (MCF7; [13]): 26.9 ± 3.7%; percentage of EdU-negative (hTERT-HMEC; [12]): 4.7 ± 0.51%; percentage of EdU-negative (hTERT-HMEC; [13]): 4.97 ± 0.19%
